Laboratory results: the supplement of paper PMC10065799, “High-throughput profiling of sequence recognition by tyrosine kinases and SH2 domains using bacterial peptide display” (eLife, 2023)

Columns and labels:
SHP2-C SH2 = assay: SH2 binding enrichment of the phosphorylated peptide, bacterial display (enrichment ratio); higher = better substrate or ligand; peptides without Tyr show the background
c-Src SH2 = assay: as above
Grb2 SH2 = Grb2 SH2 (UniProt P62993); assay: as above
Fyn = Fyn (UniProt P06241); assay: phosphorylation enrichment, bacterial display (enrichment ratio); higher = better substrate or ligand; peptides without Tyr show the background
Fes = Fes (UniProt P07332); assay: as above
AncSZ = assay: as above
FGFR1 = FGFR1 (UniProt P11362); assay: as above
EPHB2 = EPHB2 (UniProt P29323); assay: as above
MERTK = MERTK (UniProt Q12866); assay: as above
FGFR3 = FGFR3 (UniProt P22607); assay: as above
Fer (mouse) = assay: as above
Jak2 = Jak2 (UniProt O60674); assay: as above
c-Abl (mouse) = assay: as above
EPHB1 = EPHB1 (UniProt P54762); assay: as above
Hck = Hck (UniProt P08631); assay: as above
c-Src = assay: as above
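For SH2 binding enrichment of the phosphorylated peptide, bacterial display in this document: peptide library displayed on the E. coli surface as eCPX fusions, selected cells deep-sequenced, score is each peptide's frequency after selection divided by its frequency in the input.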
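For phosphorylation enrichment, bacterial display in this document: 11-residue human phosphosite peptides and single-mutation variants displayed on the E. coli surface, counted by deep sequencing, each peptide's frequency after selection divided by its frequency in the unselected input library; frequency after pTyr selection over input frequency; kinase dosed for 20-30% of maximal phosphorylation in three min.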

FGFR3, sequence (P22607 whole entry, looked up): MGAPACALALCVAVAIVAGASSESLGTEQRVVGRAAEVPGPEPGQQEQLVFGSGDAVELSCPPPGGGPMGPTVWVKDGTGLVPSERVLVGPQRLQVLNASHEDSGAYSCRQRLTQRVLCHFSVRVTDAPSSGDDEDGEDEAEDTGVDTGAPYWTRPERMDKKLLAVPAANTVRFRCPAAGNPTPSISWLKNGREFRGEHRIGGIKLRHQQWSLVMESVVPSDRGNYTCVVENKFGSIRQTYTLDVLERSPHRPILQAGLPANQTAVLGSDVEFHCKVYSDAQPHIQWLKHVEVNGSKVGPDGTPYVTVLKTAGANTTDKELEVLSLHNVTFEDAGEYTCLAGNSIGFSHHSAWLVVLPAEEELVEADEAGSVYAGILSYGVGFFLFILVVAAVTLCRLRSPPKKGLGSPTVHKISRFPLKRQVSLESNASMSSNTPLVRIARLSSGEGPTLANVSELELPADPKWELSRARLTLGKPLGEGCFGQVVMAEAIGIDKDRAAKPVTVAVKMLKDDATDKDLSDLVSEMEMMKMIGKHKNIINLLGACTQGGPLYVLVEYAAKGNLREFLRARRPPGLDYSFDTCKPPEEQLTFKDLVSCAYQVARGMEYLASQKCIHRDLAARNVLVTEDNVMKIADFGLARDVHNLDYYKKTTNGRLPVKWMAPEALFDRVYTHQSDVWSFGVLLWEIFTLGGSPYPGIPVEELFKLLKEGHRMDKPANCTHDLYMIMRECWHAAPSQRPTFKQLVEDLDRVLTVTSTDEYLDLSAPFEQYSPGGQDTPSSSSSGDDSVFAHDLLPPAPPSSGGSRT
EPHB1, sequence (P54762 whole entry, looked up): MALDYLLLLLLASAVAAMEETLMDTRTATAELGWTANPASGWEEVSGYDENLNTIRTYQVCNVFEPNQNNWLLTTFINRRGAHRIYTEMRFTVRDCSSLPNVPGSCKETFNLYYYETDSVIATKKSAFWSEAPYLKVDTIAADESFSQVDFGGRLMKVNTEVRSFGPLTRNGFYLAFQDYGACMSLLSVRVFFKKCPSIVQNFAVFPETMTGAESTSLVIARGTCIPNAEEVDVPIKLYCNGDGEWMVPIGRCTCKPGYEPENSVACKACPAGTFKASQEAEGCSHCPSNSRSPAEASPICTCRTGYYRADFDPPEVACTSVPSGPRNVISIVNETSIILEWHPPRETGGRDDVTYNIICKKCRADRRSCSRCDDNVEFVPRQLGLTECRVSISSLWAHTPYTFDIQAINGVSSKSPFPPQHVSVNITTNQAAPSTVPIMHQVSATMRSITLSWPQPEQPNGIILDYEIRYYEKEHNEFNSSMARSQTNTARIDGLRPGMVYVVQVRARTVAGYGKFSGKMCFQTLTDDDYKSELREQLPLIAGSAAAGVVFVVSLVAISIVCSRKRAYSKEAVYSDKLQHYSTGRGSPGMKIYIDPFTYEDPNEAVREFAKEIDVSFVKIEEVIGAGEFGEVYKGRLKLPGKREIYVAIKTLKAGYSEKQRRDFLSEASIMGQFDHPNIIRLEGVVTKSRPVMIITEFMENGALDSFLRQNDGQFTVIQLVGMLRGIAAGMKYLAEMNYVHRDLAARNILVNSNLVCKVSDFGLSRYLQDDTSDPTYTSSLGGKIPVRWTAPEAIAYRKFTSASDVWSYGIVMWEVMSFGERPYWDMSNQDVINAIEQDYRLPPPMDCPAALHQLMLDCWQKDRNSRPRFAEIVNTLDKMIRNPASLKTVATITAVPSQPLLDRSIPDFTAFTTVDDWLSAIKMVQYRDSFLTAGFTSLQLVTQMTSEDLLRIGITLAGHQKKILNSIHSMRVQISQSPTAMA
MERTK, sequence (Q12866 whole entry, looked up): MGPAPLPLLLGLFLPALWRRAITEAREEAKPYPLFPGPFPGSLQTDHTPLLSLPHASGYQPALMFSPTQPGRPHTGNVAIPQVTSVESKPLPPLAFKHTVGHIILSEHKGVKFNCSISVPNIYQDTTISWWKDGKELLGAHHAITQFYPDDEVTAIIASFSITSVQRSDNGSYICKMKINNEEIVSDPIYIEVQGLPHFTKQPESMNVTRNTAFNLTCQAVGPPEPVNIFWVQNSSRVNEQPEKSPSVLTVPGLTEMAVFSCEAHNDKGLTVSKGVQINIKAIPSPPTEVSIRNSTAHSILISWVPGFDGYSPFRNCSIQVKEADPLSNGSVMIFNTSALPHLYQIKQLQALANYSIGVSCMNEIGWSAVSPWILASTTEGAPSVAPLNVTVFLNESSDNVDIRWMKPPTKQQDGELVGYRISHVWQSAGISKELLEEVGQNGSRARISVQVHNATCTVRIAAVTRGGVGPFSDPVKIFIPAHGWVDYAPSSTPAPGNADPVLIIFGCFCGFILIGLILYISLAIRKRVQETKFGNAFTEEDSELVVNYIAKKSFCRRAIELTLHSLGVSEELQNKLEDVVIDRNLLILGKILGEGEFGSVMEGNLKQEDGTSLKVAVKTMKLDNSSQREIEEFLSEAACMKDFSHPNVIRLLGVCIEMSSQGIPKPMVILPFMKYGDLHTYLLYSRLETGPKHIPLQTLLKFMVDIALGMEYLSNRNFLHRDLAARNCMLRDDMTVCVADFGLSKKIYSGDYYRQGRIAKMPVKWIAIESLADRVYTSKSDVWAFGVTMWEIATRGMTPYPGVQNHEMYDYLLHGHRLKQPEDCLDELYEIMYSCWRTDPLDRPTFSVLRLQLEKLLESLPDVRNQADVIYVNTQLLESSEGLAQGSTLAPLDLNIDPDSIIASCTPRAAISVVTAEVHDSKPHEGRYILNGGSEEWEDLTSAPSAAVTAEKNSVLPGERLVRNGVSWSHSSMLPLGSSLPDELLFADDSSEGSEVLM
Hck, sequence (P08631 whole entry, looked up): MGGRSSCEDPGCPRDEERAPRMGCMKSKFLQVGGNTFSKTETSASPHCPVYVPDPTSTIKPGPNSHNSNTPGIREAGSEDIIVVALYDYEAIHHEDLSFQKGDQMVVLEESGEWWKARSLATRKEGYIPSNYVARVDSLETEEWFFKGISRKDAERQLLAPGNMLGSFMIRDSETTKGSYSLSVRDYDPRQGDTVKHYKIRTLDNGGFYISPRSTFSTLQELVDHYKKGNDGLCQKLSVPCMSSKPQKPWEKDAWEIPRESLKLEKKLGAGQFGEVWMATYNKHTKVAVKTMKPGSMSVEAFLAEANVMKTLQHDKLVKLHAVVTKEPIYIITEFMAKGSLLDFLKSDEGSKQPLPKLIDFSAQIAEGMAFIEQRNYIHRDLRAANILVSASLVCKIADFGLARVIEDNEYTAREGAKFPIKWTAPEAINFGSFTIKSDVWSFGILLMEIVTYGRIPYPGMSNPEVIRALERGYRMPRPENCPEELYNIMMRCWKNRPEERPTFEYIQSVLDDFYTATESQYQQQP
Fes, sequence (P07332 whole entry, looked up): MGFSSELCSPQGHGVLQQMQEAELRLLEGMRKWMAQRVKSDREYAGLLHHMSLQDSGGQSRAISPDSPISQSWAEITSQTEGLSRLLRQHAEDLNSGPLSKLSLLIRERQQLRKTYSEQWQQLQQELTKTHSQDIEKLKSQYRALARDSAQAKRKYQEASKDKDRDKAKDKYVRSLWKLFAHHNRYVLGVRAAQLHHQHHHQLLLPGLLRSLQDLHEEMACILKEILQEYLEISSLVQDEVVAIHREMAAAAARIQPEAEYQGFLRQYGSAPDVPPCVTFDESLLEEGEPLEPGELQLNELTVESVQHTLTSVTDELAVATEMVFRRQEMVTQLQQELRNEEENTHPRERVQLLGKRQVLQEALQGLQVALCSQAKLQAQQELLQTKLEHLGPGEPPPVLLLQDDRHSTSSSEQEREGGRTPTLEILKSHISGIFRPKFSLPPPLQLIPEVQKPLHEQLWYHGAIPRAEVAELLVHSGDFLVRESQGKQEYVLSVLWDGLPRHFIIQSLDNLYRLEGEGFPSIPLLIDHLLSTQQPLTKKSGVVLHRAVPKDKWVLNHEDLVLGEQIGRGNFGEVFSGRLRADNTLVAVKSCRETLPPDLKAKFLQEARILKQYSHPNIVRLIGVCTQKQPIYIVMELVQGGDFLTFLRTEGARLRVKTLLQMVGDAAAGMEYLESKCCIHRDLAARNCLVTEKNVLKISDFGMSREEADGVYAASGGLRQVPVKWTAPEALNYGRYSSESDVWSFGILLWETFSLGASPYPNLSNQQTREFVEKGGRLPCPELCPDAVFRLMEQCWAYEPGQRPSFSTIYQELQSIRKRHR
FGFR1, sequence (P11362 whole entry, looked up): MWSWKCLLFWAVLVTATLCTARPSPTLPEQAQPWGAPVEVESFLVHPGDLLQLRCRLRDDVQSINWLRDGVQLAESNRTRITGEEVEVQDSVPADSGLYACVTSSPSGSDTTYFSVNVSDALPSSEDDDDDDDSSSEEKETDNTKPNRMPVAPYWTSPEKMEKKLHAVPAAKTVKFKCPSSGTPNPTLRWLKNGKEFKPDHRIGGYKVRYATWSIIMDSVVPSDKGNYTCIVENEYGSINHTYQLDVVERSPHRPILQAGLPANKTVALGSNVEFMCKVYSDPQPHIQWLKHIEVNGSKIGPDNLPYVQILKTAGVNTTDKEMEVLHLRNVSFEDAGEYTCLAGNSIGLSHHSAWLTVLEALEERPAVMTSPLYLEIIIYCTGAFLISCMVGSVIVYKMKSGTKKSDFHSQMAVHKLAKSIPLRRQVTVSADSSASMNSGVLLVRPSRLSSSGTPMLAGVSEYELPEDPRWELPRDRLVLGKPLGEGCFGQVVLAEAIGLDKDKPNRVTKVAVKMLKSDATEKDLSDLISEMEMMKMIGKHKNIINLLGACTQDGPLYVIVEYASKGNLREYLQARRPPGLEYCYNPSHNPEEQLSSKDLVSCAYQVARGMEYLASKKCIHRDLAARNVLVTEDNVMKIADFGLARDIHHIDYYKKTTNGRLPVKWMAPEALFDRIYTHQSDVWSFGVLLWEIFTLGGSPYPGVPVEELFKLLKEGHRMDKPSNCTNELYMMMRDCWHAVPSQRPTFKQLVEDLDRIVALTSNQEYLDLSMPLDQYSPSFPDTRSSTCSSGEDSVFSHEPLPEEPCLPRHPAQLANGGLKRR

Sequence | SH2 binding enrichment (SHP2-C SH2) | SH2 binding enrichment (c-Src SH2) | SH2 binding enrichment (Grb2 SH2) | phosphorylation enrichment (Fyn) | phosphorylation enrichment (Fes) | phosphorylation enrichment (AncSZ) | phosphorylation enrichment (FGFR1) | phosphorylation enrichment (EPHB2) | phosphorylation enrichment (MERTK) | phosphorylation enrichment (FGFR3) | phosphorylation enrichment (Fer (mouse)) | phosphorylation enrichment (Jak2) | phosphorylation enrichment (c-Abl (mouse)) | phosphorylation enrichment (EPHB1) | phosphorylation enrichment (Hck) | phosphorylation enrichment (c-Src)
KSIEEYLKLVG [RASAL2_Y381] | 1.03 | 0.441 | 0.673 | 0.404 | 0.962 | 0.772 | 0.528 | 0.581 | 0.372 | 0.48 | 0.409 | 0.775 | 0.521 | 0.468 | 0.51 | 0.438
GGPAEYLRRAS [PKLR_Y38_G37E] | 0.647 | 0.355 | 0.743 | 0.427 | 0.76 | 0.954 | 0.363 | 0.334 | 0.361 | 0.415 | 0.367 | 0.508 | 0.675 | 0.41 | 0.374 | 0.285
ERFAFYRDSPR [FOXE3_Y108] | 0.751 | 0.522 | 0.774 | 0.49 | 0.785 | 0.889 | 0.474 | 0.51 | 0.489 | 0.566 | 0.404 | 0.835 | 0.625 | 0.456 | 0.523 | 0.587
RASSVFTRSTG [CCR5_Y339_Y339F] | 0.778 | 0.455 | 0.644 | 0.868 | 0.732 | 0.73 | 0.589 | 0.468 | 0.624 | 0.797 | 0.736 | 0.766 | 0.861 | 0.619 | 0.579 | 0.821
NDQANYLLNTD [ADA_Y290_S291L] | 0.893 | 0.527 | 0.765 | 0.491 | 0.968 | 0.987 | 0.432 | 0.56 | 0.395 | 0.601 | 0.379 | 0.934 | 0.681 | 0.558 | 0.469 | 0.468
HCFNSYTFPRL [PAK7_Y316_S312C_YF] | 0.574 | 0.678 | 0.734 | 0.707 | 1.72 | 1.94 | 0.713 | 0.743 | 0.591 | 0.978 | 0.804 | 1.31 | 0.795 | 0.752 | 0.564 | 0.469
GLAELYEYKKK [CKAP5_Y1854] | 1.31 | 0.671 | 1.26 | 0.569 | 0.719 | 0.671 | 0.7 | 0.397 | 0.303 | 0.546 | 0.32 | 0.393 | 0.464 | 0.479 | 0.924 | 0.489
TRNRDYDDIDD [TTYH2_Y424] | 0.766 | 0.593 | 0.721 | 0.451 | 0.917 | 1.02 | 0.562 | 0.563 | 0.507 | 0.665 | 0.438 | 0.734 | 0.621 | 0.497 | 0.527 | 0.448
AVAFVYYKSIG [ADGRL4_Y301] | 0.758 | 0.76 | 1.02 | 0.458 | 1.29 | 1.18 | 0.451 | 0.585 | 0.401 | 0.641 | 0.53 | 1.2 | 0.67 | 0.615 | 0.463 | 0.489
GRFCGYKSKHG [EPHA3_Y570] | 1.49 | 1.43 | 1.32 | 0.321 | 0.664 | 0.469 | 0.374 | 0.368 | 0.376 | 0.638 | 0.426 | 0.726 | 0.587 | 0.506 | 0.377 | 0.363
ISSLDYISKTK [VAV3_Y294] | 0.73 | 0.419 | 0.762 | 0.559 | 0.696 | 0.703 | 0.505 | 0.463 | 0.537 | 0.513 | 0.386 | 0.495 | 0.478 | 0.626 | 0.447 | 0.487
GYSRHCEDGYP [CTNND1_Y217_Y217C] | 0.563 | 0.544 | 0.796 | 0.44 | 0.972 | 0.869 | 0.46 | 0.83 | 0.446 | 0.556 | 0.465 | 0.879 | 0.928 | 0.521 | 0.5 | 0.489
IIGNGYFFRVF [MYBPC3_Y1135_YF] | 0.766 | 0.453 | 0.815 | 0.258 | 0.98 | 0.844 | 0.334 | 0.461 | 0.28 | 0.538 | 0.394 | 0.956 | 0.692 | 0.433 | 0.33 | 0.288
QPEDIYHQTWA [GBA_Y244_G241E] | 0.93 | 0.61 | 1.09 | 7.34 | 1.09 | 2 | 6.95 | 0.673 | 3.42 | 4.93 | 3.02 | 0.955 | 9.69 | 0.843 | 4.47 | 5.92
KWHREYNSKFV [RICTOR_Y835_YF] | 1.18 | 1.19 | 1.11 | 0.364 | 0.623 | 0.556 | 0.371 | 0.391 | 0.37 | 0.49 | 0.422 | 0.581 | 0.555 | 0.35 | 0.371 | 0.334
LSAPEYGPKLK [TBC1D14_Y46] | 0.665 | 0.5 | 1.02 | 0.451 | 0.514 | 0.592 | 0.58 | 0.425 | 0.383 | 0.565 | 0.458 | 0.409 | 0.456 | 0.539 | 0.537 | 0.412
KTVQDYLKKFY [MMP8_Y36_E38K] | 0.606 | 0.438 | 1 | 0.366 | 0.687 | 0.571 | 0.428 | 0.398 | 0.454 | 0.382 | 0.325 | 0.517 | 1.42 | 0.396 | 0.438 | 0.421
TFINKYQGKLF [HGD_Y249_V245F] | 0.78 | 0.629 | 0.726 | 0.414 | 0.589 | 0.566 | 0.387 | 0.346 | 0.631 | 0.457 | 0.358 | 0.457 | 0.52 | 0.391 | 0.368 | 0.347
TENAGYYFQVS | 1.04 | 0.962 | 0.783 | 0.456 | 1.52 | 1.39 | 2 | 0.713 | 1.29 | 1.76 | 0.604 | 1.99 | 0.983 | 0.78 | 0.563 | 0.509
CSRHFYQLTKL [AR_Y858_R856H] | 0.821 | 0.97 | 1.04 | 0.444 | 1.17 | 1.06 | 0.705 | 0.576 | 0.432 | 0.662 | 0.615 | 0.969 | 0.763 | 0.501 | 0.464 | 0.422
RLSARYFQGDL [PDK3_Y337_Y334S] | 1.01 | 0.46 | 0.77 | 0.399 | 0.684 | 0.563 | 0.436 | 0.342 | 0.41 | 0.492 | 0.312 | 0.718 | 0.649 | 0.393 | 0.362 | 0.469
SVTCTYSPAHN [TP53_Y126_L130H] | 0.605 | 0.367 | 0.644 | 0.497 | 1.59 | 1.37 | 0.502 | 0.705 | 0.663 | 0.865 | 0.799 | 2.08 | 1.17 | 0.773 | 0.517 | 0.802
VNYGAYINDFK [GLB1_Y488] | 0.88 | 4.76 | 10.3 | 0.912 | 0.86 | 0.773 | 0.469 | 1.22 | 0.373 | 0.593 | 0.402 | 0.665 | 0.515 | 0.709 | 0.454 | 0.761
VLPIDYFFPPQ [AR_Y552_YF] | 0.882 | 0.696 | 0.986 | 0.574 | 0.82 | 2.91 | 11.5 | 0.914 | 0.459 | 9.06 | 0.35 | 0.969 | 0.502 | 0.708 | 0.604 | 0.522
RLRKYYLGKYL [KLB_Y906] | 0.441 | 0.341 | 0.594 | 0.707 | 0.728 | 0.601 | 0.584 | 0.661 | 0.73 | 0.528 | 0.538 | 0.662 | 0.454 | 0.429 | 0.571 | 0.701
GVSFIYTIDGS [DCX_Y105_R102S_YF] | 0.725 | 0.584 | 0.88 | 2.18 | 1.31 | 1.43 | 0.496 | 0.532 | 0.552 | 0.753 | 0.491 | 1.54 | 0.927 | 0.694 | 0.976 | 1.98
GDFLSYREFHS [ERBIN_Y1107_YF] | 0.639 | 0.49 | 0.741 | 0.348 | 0.686 | 0.625 | 0.432 | 0.469 | 0.359 | 0.567 | 0.489 | 0.557 | 0.534 | 0.386 | 0.385 | 0.423
CEDGTYSPEIS [PTDSS1_Y424] | 1.13 | 0.519 | 0.835 | 0.512 | 1.33 | 1.2 | 0.5 | 0.578 | 0.486 | 0.824 | 0.589 | 1.33 | 0.838 | 0.649 | 0.595 | 0.663
EMFNPCFGLFE [NEDD4L_Y679_Y679C_YF] | 0.792 | 0.716 | 1.08 | 0.543 | 1.45 | 1.27 | 0.667 | 0.687 | 0.554 | 0.798 | 0.811 | 1.41 | 1.29 | 0.71 | 0.562 | 0.725
